1 molecule from publication PMC6182170, “A protein–protein interaction underlies the molecular basis for substrate recognition by an adenosine-to-inosine RNA-editing enzyme” can be followed below.

This series addresses T1, ADR-1 dsRBD2 mutant (ds2) (Caenorhabditis elegans, UniProt Q9U3D6 1-964, K584E;K585A;K588A).
T1 sequence: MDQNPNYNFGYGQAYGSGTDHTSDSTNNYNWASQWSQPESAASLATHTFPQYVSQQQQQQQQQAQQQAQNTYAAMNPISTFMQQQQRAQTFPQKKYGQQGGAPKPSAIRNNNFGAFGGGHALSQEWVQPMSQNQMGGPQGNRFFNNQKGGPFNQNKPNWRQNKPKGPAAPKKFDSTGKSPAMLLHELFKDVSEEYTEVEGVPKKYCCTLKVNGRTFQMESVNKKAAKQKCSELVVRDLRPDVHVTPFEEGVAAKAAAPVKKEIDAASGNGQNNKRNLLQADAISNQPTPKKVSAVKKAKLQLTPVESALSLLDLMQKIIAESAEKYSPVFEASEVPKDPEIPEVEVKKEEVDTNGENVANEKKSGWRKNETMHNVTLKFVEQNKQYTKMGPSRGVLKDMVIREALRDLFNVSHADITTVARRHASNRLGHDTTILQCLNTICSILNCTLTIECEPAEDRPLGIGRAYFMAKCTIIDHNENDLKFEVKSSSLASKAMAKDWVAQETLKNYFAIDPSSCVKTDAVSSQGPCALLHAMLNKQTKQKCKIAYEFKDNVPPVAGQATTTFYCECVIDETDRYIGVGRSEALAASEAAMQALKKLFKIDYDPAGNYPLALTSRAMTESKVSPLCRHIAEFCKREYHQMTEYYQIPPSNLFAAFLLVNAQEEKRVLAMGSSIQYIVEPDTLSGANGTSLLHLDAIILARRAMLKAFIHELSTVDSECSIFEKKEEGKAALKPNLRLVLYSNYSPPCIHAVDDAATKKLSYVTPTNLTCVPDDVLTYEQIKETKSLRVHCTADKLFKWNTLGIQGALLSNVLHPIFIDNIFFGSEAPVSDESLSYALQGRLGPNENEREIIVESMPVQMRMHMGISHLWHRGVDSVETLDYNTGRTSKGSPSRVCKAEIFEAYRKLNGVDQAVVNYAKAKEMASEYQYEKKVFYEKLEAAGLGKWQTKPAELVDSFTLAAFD
Kind of series: EMSA; apparent Kd; text calls binding similar to WT; EMSA: 20 pM dsRNA, 50 mM KCl, 10 mM Tris-HCl pH 8.0, 10% glycerol, 1 mM MgCl2, 0.5 mM DTT, on ice 30 min; native 6% gel, 0.5x TBE, 4 C. To be noted: protein: recombinant; tags: N-terminal 6xHis (TEV site); label: 5' 32P on ssRNAs (PNK); imperfect duplex; printed strands 45 and 46 nt.

B1: lam-2 3'UTR 46 bp dsRNA (dsRNA)
RNA 1: AGACACACAUACAAAAUUUACAAAAAUUGUUAAUUGACAAAAUAC
RNA 2: GUGUUUUGCCAAUUAACGAUUUUUUGUAAAUUUUAUAUGUGUCUCU
For the molecule B1, the Kd turned out to be 4.67 ± 0.7 nM.
